# In patent publication US20100222269A1 (Novo Nordisk, published 2010):
# Positions of bridges follow the written chain, without caps; N, C: chain ends. Groups on a side chain read outwards from the residue. No end group written: not given here. *: point of attachment. C20 diacid = O=C(O)CCCCCCCCCCCCCCCCCCC(=O)*; C18 diacid = O=C(O)CCCCCCCCCCCCCCCCC(=O)*; AEEA = NCCOCCOCC(=O)O
# B1: N-epsilon25-(2-{2-[2-(2-{2-[2-(19-carboxynonadecanoylamino) ethoxy]ethoxy}acetylamino)ethoxy]ethoxy}acetyl)-[Lys25]-pramlintide (1-37) (peptide)
# peptide: KCNTATCATQRLANFLVHSSNNFGK([AEEA-AEEA-C20 diacid])ILPPTNVGSNTY-NH2
# modifications: disulfide 2-7 (inferred)
# B2: N-epsilon25-(2-{2-[2-(2-{2-[2-(17-carboxyheptadecanoylamino) ethoxy]ethoxy}acetylamino)ethoxy]ethoxy}acetyl)-[Arg18,Lys25]-pramlintide (1-37) (peptide)
# peptide: KCNTATCATQRLANFLVRSSNNFGK([AEEA-AEEA-C18 diacid])ILPPTNVGSNTY-NH2
# modifications: disulfide 2-7 (inferred)
# B3: N-alpha-(19-carboxynonadecanoyl)-Glu-Lys-[Arg1]-pramlintide (1-37) (peptide)
# peptide: {C20 diacid}-EKRCNTATCATQRLANFLVHSSNNFGPILPPTNVGSNTY-NH2
# modifications: disulfide 4-9 (inferred)
# B4: N-epsilon2′-(2-{2-[2-(2-{2-[2-(19-carboxynonadecanoylamino) ethoxy]ethoxy}acetylamino)ethoxy]ethoxy}acetyl)-[Lys21]-pramlintide (1-37) (peptide)
# peptide: KCNTATCATQRLANFLVHSSK([AEEA-AEEA-C20 diacid])NFGPILPPTNVGSNTY-NH2
# modifications: disulfide 2-7 (inferred)
# B5: N-epsilon29-(2-{2-[2-(2-{2-[2-(19-carboxynonadecanoylamino) ethoxy]ethoxy}acetylamino)ethoxy]ethoxy}acetyl)-[Lys29]-pramlintide (1-37) (peptide)
# peptide: KCNTATCATQRLANFLVHSSNNFGPILPK([AEEA-AEEA-C20 diacid])TNVGSNTY-NH2
# modifications: disulfide 2-7 (inferred)
# B6: N-epsilon17-(2-{2-[2-(2-{2-[2-(19-carboxynonadecanoylamino)ethoxy]ethoxy}acetylamino)ethoxy]ethoxy}acetyl)-[Lys17]-pramlintide (1-37) (peptide)
# peptide: KCNTATCATQRLANFLK([AEEA-AEEA-C20 diacid])HSSNNFGPILPPTNVGSNTY-NH2
# modifications: disulfide 2-7 (inferred)
# Target: Amylin 3(a) receptor (human calcitonin receptor (CTa) with RAMP-3) on BHK570 cells (human, UniProt P30988 25-474)
# Sequence (P30988 25-474): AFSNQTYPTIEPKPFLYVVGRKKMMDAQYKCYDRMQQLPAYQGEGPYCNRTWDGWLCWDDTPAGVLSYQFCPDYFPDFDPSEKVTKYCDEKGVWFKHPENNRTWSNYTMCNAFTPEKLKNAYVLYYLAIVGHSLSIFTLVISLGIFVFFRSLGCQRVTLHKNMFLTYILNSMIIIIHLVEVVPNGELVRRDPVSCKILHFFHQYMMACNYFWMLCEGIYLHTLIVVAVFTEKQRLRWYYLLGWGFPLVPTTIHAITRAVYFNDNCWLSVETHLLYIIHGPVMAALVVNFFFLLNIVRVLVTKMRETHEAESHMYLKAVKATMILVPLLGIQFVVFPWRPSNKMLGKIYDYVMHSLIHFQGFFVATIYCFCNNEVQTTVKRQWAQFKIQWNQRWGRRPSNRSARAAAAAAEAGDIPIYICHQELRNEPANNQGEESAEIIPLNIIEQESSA
# Test: cell-based or functional assay
row,Binder,Potency luciferase assay
1,B1,0.06 nM
2,B2,0.04 nM
3,B3,0.07 nM
4,B4,0.1 nM
5,B5,0.2 nM
6,B6,0.1 nM
